Assay results as given in patent publication US20240360224A1 (ORIONIS BIOSCIENCES, published 2024).
Where a chain is given by its changes, count along the chain named.

B1: 2LEC 6 (VHH)
VHH: QVQLQESGGGWVQPGGSLRLSCAATGSIVSINAIGWYRQAPGKQRELVASITNQGIRNYSTSVMGRFTISRDDVKNTVSLQMNSLKPEDSAVYYCKGFAGWGKEDYWGQGTQVTVSS
notes: Entry includes C-terminal AAA-HA-His6 (pMECS)
B2: 1LEC 88 (VHH)
VHH: QVQLQESGGGLVQPGGSLRLSCAAIGNIASITAMGWYRQAPGKQRELVAAITSASASRTTYADSVKGRFTISRDNAKNTVYLQMNSLQPEDTAVYYCKGFRSGADDYWGQGTQVTVSS
notes: as for B1
B3: 1LEC 91 (VHH)
VHH: QVQLQESGGGLVQPGGSLRLSCAASGFTFDDYAIGWFRQAPGKEHEGVSCISRSDGSTYYDDSVKGRFTISSDNAKNTVYLQMNSLKPEDTAVYYCAAEVPSTYSCSGFREDYKGKGTQVTVSS
notes: as for B1
B4: 1LEC 7 (VHH)
VHH: QVQLQESGGGLVQPGGSLRLSCAASGRISSINSMGWYRQAPGNQRELVAAITNGGAKTYADSVKGRFTISTDNAGNTVYLQMDSLRPEDTAVYYCKAFTRRDDYWGQGTQITVSS
notes: as for B1
B5: 3LEC 57 (VHH)
VHH: B4 VHH with N43K, T71R, N73G, S84N, R101T, D102Y, I111V
notes: as for B1
B6: 2LEC 38 (VHH)
VHH: B4 VHH with S29F, S30D, S33A, N43K, A56Q, K57T, T71R, D83N, R101S, I111V
notes: as for B1
B7: 3LEC 36 (VHH)
VHH: QVQLQESGGGLVQPGGSLRLSCAASGRIGSINSMGWYRQAPGKQREMVAAITNGGATVYADSVKGRFTISRDNAGNTVDLHMNSLRPEDSAVYYCKAFTRGDDYWGQGTQVTVSS
notes: as for B1
B8: 2LEC 68 (VHH)
VHH: B4 VHH with G16E, R27S, S29F, S33A, N43K, N53D, R101G, D102N, I111V
notes: as for B1
B9: 1LEC 42 (VHH)
VHH: QVQLQESGGGLVQPGGSLRLSCAASGRVFSINAMGWYRQAPGKQRELVAAITNQGATTYADSVKGRFTISRDTAGNTVYLQMNSLRPEDTAVHYCKAFTRTDDYWGQGTQVTVSS
notes: as for B1
B10: 3LEC 11 (VHH)
VHH: QVQLQESGGGLVQPGGSLRLSCAASGSISSINAMGWYRQAPGKQRELVAAITGQGRTTYADSVKGRFTISRDGAKNTVYLQMNSLKPEDTAVYYCKVFAADGMEYWGKGTQVTVSS
notes: as for B1
B11: 1LEC 92 (VHH)
VHH: B10 VHH with K43N, G53N, T57V, D101S
notes: as for B1
B12: 3LEC 69 (VHH)
VHH: QVQLQESGGGLVQPGGSPRLSCAASGRFFRVNAMGWYRQAPGKQRELVAAITNGGQTAYADSVKGRFTISRDSAKNTVYLQMNSLKSEDTAVYYCKVFAADGMEYWGKGTQVTVSS
notes: as for B1
B13: 2LEC 54 (VHH)
VHH: QVQLQESGGGLAQPGGSLQLSCAASGRAFSTNSMGWYRQASGKQRELVAAITSQGRITLADSVKGRFTISSDNTKNTVFLQMNSLKPEDTAVYYCNAWTTLGTFGGQGTQVTVSS
notes: as for B1
B14: 2LEC 13 (VHH)
VHH: QVQLQESGGGLVQAGASLRLSCAASGSIFSINAMGWYRQAPGKQRELVAAITNQGRTTYADSVKGRFTISRDNAKNTVYLQMDSLEPEDTAIYYCKGFSPTGDYWGQGTQVTVSS
notes: as for B1
B15: 2LEC 93 (VHH)
VHH: QVQLQESGGGLVQAGGSLRLSCAASGSIFSINAMGWYRPALGEQRELVAAITTGGRTTYVDSVKGRFSISRDNAKNTVYLQMNSLKPEDTAVYFCKAFTRDEDFWGQGTQVTVSS
notes: as for B1
B16: 1LEC 30 (VHH)
VHH: B15 VHH with F29L, A33S, E43N, T53N, G54D, S68T, F94W, E102K, F104Y
notes: as for B1
B17: 2LEC 53 (VHH)
VHH: B15 VHH with F29D, T58A, S68T, N73A, F94S, E102T, F104Y
notes: as for B1
B18: 1LEC 63 (VHH)
VHH: QVQLQESGGGLVQAGGSLRLSCAATGDISSINAMGWHRPARGNERELVAAITNGGRTTYVDSVKGRFTISRDNAKNTVYLQMNSLKPEDTAVYFCKAYTRDEDYWGQGTQVTVSS
notes: as for B1
B19: 1LEC 9 (VHH)
VHH: QVQLQESGGGLVQAGGSLRLSCAASGSITSINAMGWYRQAPGKQRELVAAITSGGRLSYADSVKGRFTISRDNAESTVALQMNSLKPEDTAVYSCAAFQSSGIDWGQGTQVTVSS
notes: as for B1
B20: 1LEC 84 (VHH)
VHH: QVQLQESGGGLVQPGGSLRLSCAASGSIFSIAAMGWYRQAPGKQRELVAAITSGGRRAYADSVKGRFTISRDNDENTVALQMNSLKPEDTDVYYCNAKADHNDYWGQGTQITVSS
notes: as for B1
B21: 2LEC 23 (VHH)
VHH: QVQLQESGGGLVQPGGSLRLSCAASGTSFSINGMAWYRQAPGGQRELVGGITSDGSTGYADSVKGRFTVSRDNAKNTVYLQMNRLKPEDTAVYYCGTSTPRGDSYWGQGTQVTVSS
notes: as for B1
B22: 2LEC 48 (VHH)
VHH: B21 VHH with P14A, S28L, G43K, Q44R, V69I, V78A, R84S
notes: as for B1
B23: 1LEC 62 (VHH)
VHH: QVQLQESGGGLVQPGGFLSLSCAASGSMHSVNSMAWYRQVPGKQRELVAAITSGGRLAYAPSVNGRFTISRDYAKNTIHLQMNSLEPEDTAVYYCAALNSATTYWGQGTQVTVSS
notes: as for B1
B24: 2LEC 60 (VHH)
VHH: QVQLQESGGGLVQPGGSLRLSCAASGRFFRVNAMGWYRQVPGKQRELVAAITNGGQIAYADSVKGRFTISRDSAKNTVYLQMNSLKSEDTDVYYCNAKAAATHLSTVADYWGQGTQVTVSS
notes: as for B1
B25: 1LEC 70 (VHH)
VHH: QVQLQESGGGLVQPGGSLRLSCAASGSIFSINAMGWYRQAPGKQRELVAAITNQGRLTYADSVKGRFTISRDNAKNTVFLQMDSLKPEDTAVYYCNAKWYDPLVIEYYDNWGQGTQVTVSS
notes: as for B1
B26: 3LEC 66 (VHH)
VHH: QVQLQESGGGLVQPGGSLRLSCAASRSFFSFNAMGWYRQAPGKQRELVAAITNGGRIAYGTSVMGRFTISRDNAKNTVYLQMDSLKPEDTAVYYCNAKPAPVYGSTVGDYWGQGTQVTVSS
notes: as for B1
B27: 2LEC 59 (VHH)
VHH: B26 VHH with A24V, S27N, F31I, N73D, Y79D, D83N, K86R, P99A, A100I, G108E
notes: as for B1
B28: 2LEC 16 (VHH)
VHH: B26 VHH with A23L, F29S, Q44E, T61I, S62A, M64N, D83N, A100T
notes: as for B1
B29: 1LEC 28 (VHH)
VHH: QVQLQESGGGLVQSGGSLRLSCAASGSVFSINAWGWYRQAPGKQRELVAAITNQGRIAYAPSVNGRFTISRDSAKNTVYLQMNSLKPEDTAVYYCNAKPTPVYGSTVGDYWGQGTQVTVSS
notes: as for B1
B30: 2LEC 90 (VHH)
VHH: QVQLQESGGGLVQTGGSLRLSCAASGSIFSFNAMGWYRQAPGKQRELVAAITDGGRLTYADSAKGRFTISRENTRNTVHLQMSSLKAEDTADYYCTIWTRDRQQYWGQGTQVTVSS
notes: as for B1
B31: 2LEC 26 (VHH)
VHH: B30 VHH with Q13E, F31I, G54Q, T58A, T74A, V78L, D92V, T99D
notes: as for B1
B32: 3LEC 30 (VHH)
VHH: QVQLQESGGGLVQTGGSLRLSCAASGSIFSINSMGWYRQAPGKQRELVAAITSQGRSTYADSAKGRFTISLGNARNTVNLQMSSLKTEDTAVYYCTIWARDRQQYWGQGTQVTVSS
notes: as for B1
B33: 3LEC 55 (VHH)
VHH: B30 VHH with T14P, R19K, G65N, D92V, R100K
notes: as for B1
B34: 2LEC 55 (VHH)
VHH: QVQLQESGGGLVQTGESLSLSCAVASGSIISINSMGWYRQAPEKQRELVAAITVDGRLAYADSAKHRFTISKESARNTVHLHMSSLKPEDTAVYYCTIWVRDGQQYWGQGTQVTVSS
notes: as for B1

The binders below were run against T1, human Clec9A (human, UniProt Q6UXN8 1-241) (assay: flow cytometry on HEK293-T cells transfected with human Clec9A; His-tagged VHH at 2 µg/ml, anti-His FITC antibody; single concentration).
T1 construct: Expressed on transfected CHO-K1, HEK293-T and HL116 cells, or native on human dendritic cells; also called hClec9A; C-type lectin domain family 9 member A
Procedure: The binding characteristics of various VHHs (as described in Example 1) were tested by flow cytometry. HEK293-T cells were transfected with a human Clec9A expression plasmid and stained with the His-tagged VHHs at 2 μg/ml, followed by staining with an anti-His Fitc conjugated antibody. Binding was measured by detecting cellular fluorescence via flow cytometry.

T1 sequence (Q6UXN8 whole entry, the tested form may be a part): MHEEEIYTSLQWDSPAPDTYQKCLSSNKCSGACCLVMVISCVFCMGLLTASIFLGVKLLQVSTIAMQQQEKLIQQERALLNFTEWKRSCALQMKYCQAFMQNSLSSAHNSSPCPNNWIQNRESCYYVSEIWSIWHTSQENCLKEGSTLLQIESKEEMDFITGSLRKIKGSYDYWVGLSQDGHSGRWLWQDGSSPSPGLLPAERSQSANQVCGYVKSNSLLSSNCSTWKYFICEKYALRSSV

Binding result, binds:
B1
B2
B3
B4
B5
B6
B7
B8
B9
B10
B11
B12
B13
B14
B15
B16
B17
B18
B19
B20
B21
B22
B23
B24
B25
B26
B27
B28
B29
B30
B31
B32
B33
B34
